Target: T1, pKal catalytic domain Mutant 2 (human, UniProt P03952 391-638, limits assumed)
T1 construct: domain: catalytic domain; Expressed in Pichia pastoris, purified by IMAC; not shown: His tag fusion
Experiment: enzyme inhibition, equilibrium Ki,app

T1 sequence (P03952 other isoform, or with tags, fused parts or gaps mutant limits assumed): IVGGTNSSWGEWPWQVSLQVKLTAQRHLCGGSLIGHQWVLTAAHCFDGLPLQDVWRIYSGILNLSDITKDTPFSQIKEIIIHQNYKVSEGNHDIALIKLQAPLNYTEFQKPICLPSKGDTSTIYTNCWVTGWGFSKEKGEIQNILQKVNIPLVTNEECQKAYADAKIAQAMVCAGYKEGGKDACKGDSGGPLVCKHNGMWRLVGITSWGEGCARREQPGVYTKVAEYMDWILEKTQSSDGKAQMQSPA

B1: M6-D09 (antibody, V domains shown)
VH: EVQLLESGGGLVQPGGSLRLSCAASGFTFSFYYMVWVRQAPGKGLEWVSVIYPSGGITVYADSVKGRFTISRDNSKNTLYLQMNSLRAEDTAVYYCARDKWAVMPPYYYYAMDVWGQGTTVTVSS
VL: DIQMTQSPSSLSASVGDRVTITCRASQSIRNYLNWYQQKPGKAPNLLIYAASTLQSGVPARFSGSGSGTDFTLTISSLQPEDFATYYCQQLSGYPHTFGQGTKLEIK
notes: also called M06-D09; 559A-M06-D09
  fold increase of Ki,app against the wild type catalytic domain: ~5 fold
